2 molecules from patent publication US20250340631A1 (HARBOUR BIOMED SHANGHAI, published 2025) can be followed below.

Assay [1] deals with T1, human CLDN18.2 (human).
T1 construct: the HEK293 line was made with a GenScript plasmid; also called hCLDN18.2
Kind of assay: FACS on NUGC4_D8 cells.
Experimental: (§1) Antibodies were assayed for binding affinity by FACS. Test cells include HEK293/hCLDN18.2, HEK293/hCLDN18.1, NUGC4_D8 and Jurkat cells. […] The cell density was adjusted to 10⁶ cells/mL, and 50 μL of the cell suspension was added to each well of a 96-well plate. Antibodies were diluted to different concentrations with FACS buffer, and 50 μL of the antibody dilution was added to each well of the 96-well plate. After 2 h of incubation at 4° C., the plate was washed twice with FACS buffer. […] After 1 h of incubation at 4° C., the plate was washed twice with FACS buffer. The cells were resuspended in fixative solution, and then the fluorescence of the cells was monitored using an FACS instrument (ACEA NovoCyte).

Assay [2] concerns the target T1, human CLDN18.2. Kind of assay: cell-based or functional assay.
Assay [3] deals with CLDN18.2 of SNU620 cells (methionine to leucine at amino acid 149) (human, UniProt P56856-2 1-261). Kind of assay: cell-based or functional assay.
The target in assay [4] is T1, human CLDN18.2. Kind of assay: FACS on HEK293/hCLDN18.2 cells.
Experimental: as §1
For the next assay, the target named is T2, Human CD64 (human, UniProt P12314 16-288, limits assumed).
T2 construct: bought recombinant protein
Kind of assay: BLI (Octet), antibody on FAB2G sensor.

The target of a further assay is Human CD16a(V) (human, UniProt P08637 17-208). Put plainly: BLI (Octet), antibody on FAB2G sensor.
The next assay addresses Human CD16a(F) (human, UniProt P08637 17-208). Put plainly: BLI (Octet), antibody on FAB2G sensor.
The target of the next assay is T3, Human CD32a(H) (human, UniProt P12318 36-218, limits assumed).
T3 sequence (looked up): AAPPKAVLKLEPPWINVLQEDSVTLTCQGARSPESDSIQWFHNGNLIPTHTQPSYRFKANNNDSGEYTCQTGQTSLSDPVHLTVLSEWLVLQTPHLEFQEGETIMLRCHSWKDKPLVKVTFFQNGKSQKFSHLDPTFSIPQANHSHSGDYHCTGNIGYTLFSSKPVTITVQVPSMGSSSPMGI
Put plainly: BLI (Octet), antibody on FAB2G sensor.

The target of a further assay is T4, Human CD32b (human, UniProt P31994 46-217, limits assumed).
T4 sequence (looked up): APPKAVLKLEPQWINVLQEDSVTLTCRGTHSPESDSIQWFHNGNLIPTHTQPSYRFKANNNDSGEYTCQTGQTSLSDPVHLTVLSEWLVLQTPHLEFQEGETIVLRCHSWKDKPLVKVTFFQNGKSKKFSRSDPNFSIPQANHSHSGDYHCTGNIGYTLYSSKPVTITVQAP
Kind of assay: BLI (Octet), antibody on FAB2G sensor.

The next assay concerns the target T5, human CLDN1 (human, UniProt O95832 1-211).
T5 construct: whole, on cells; also called hCLDN1
T5 sequence (looked up): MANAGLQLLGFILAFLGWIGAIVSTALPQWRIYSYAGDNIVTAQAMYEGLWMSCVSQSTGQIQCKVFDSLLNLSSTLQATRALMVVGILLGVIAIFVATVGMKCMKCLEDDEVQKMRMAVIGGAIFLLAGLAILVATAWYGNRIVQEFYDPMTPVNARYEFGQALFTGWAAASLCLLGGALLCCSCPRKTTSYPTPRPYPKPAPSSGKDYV
Kind of assay: FACS on HEK293 cells transiently expressing human CLDN1.

Another assay has as its target T6, human CLDN3 (human, UniProt O15551 1-220).
T6 construct: whole, on cells; also called hCLDN3
T6 sequence (looked up): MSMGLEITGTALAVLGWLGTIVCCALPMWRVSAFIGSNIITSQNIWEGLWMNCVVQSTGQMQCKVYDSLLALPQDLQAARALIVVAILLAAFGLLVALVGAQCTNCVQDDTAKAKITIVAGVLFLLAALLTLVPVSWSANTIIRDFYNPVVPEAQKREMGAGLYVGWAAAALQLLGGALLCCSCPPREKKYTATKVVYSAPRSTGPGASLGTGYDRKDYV
Kind of assay: FACS on HEK293 cells transiently expressing human CLDN3.

The target in another assay is T7, human CLDN4 (human, UniProt O14493 1-209).
T7 construct: whole, on cells; also called hCLDN4
T7 sequence (looked up): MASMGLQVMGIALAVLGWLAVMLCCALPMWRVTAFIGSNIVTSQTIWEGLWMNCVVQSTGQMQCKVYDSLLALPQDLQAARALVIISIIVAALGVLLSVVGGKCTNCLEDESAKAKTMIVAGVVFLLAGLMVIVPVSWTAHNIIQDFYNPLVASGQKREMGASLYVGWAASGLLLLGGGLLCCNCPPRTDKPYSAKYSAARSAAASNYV
Put plainly: FACS on HEK293 cells transiently expressing human CLDN4.

In the next assay the target is T8, human CLDN6 (human, UniProt P56747 1-220).
T8 construct: whole, on cells; also called hCLDN6
T8 sequence (looked up): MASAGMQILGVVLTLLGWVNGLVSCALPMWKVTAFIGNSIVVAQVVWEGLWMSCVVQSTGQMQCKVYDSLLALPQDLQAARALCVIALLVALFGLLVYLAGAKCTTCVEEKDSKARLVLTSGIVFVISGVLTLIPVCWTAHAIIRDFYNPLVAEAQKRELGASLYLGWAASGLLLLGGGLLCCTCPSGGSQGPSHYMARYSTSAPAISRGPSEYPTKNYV
Kind of assay: FACS on HEK293 cells transiently expressing human CLDN6.

A further assay concerns the target T9, human CLDN9 (human, UniProt O95484 1-217).
T9 construct: whole, on cells; also called hCLDN9
T9 sequence (looked up): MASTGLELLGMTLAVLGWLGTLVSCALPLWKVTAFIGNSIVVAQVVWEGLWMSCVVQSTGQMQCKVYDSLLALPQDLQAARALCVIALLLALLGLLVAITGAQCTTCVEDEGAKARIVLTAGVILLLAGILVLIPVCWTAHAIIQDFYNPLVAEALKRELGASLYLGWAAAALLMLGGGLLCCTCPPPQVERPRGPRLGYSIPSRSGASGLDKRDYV
Kind of assay: FACS on HEK293 cells transiently expressing human CLDN9.

Another assay deals with Human FcRn (human, UniProt P55899 24-297; P61769 21-119). Put plainly: BLI (Octet), antibody on FAB2G sensor, pH 6.0, 1:1 global fit; pH 6.0; 400-25 nM.
The target of assay [5] is T1, human CLDN18.2. Kind of assay: competition FACS on HEK293/hCLDN18.2 cells; competitor 10 nM biotinylated PR000400.
Experimental: (§2) This example is to study the binding of anti-human CLDN18.2 bispecific antibodies to the epitope region of a human CLDN18.2 antigen. Competitive binding experiments were performed at the cellular level using human CLDN18.2-overexpressing HEK293/hCLDN18.2 cells. […] The mixture was well mixed and incubated at 4° C. for 30 min. 25 μL of the corresponding serially diluted non-biotinylated anti-human CLDN18.2 antibody was added. The mixture was well mixed and incubated at 4° C. for 1 h. The cells in each well were washed twice with 200 μL of pre-cooled FACS buffer (2% BSA in DPBS) and centrifuged at 500 g at 4° C. for 5 min, and then the supernatant was discarded. A fluorescent secondary antibody (Jackson ImmunoResearch, 016-540-084, 1:500) was added. The mixture was incubated at 4° C. in the absence of light for 1 h. The cells in each well were washed twice with 200 μL of pre-cooled FACS buffer (2% BSA in DPBS) and centrifuged at 500 g at 4° C. for 5 min, and then the supernatant was discarded. Finally, the cells in each well were resuspended in 200 μL of pre-cooled FACS buffer, and the fluorescence signal values were read using a ACEA_NovoCyte.
Assay [6] has as its target T1, human CLDN18.2. Put plainly: competition FACS on HEK293/hCLDN18.2 cells; competitor 200 nM biotinylated PR004549.
Experimental: as §2

Sequence of Human FcRn (P55899 24-297 limits assumed, chain 1 of 2): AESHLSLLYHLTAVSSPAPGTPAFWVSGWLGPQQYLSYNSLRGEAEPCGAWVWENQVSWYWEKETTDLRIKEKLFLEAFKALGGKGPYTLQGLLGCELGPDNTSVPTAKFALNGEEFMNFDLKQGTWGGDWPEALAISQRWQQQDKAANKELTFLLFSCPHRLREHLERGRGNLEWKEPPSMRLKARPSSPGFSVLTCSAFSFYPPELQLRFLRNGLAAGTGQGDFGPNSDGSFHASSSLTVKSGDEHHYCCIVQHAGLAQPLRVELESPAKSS
Sequence of Human FcRn (P61769 21-119 limits assumed, chain 2 of 2): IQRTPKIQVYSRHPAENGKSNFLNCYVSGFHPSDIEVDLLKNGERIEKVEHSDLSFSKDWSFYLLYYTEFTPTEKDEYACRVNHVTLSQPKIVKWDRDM
Sequence of CLDN18.2 of SNU620 cells (methionine to leucine at amino acid 149) (P56856 other isoform, or with tags, fused parts or gaps limits assumed): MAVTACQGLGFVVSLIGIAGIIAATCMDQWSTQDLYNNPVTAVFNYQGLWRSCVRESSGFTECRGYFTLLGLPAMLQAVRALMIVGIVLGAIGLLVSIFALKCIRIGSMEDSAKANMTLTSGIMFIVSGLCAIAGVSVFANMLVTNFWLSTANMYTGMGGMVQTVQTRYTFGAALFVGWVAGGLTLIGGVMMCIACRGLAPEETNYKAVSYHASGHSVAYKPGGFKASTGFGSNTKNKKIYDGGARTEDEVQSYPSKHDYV
Sequence of Human CD16a(V) (P08637 17-208 F176V limits assumed): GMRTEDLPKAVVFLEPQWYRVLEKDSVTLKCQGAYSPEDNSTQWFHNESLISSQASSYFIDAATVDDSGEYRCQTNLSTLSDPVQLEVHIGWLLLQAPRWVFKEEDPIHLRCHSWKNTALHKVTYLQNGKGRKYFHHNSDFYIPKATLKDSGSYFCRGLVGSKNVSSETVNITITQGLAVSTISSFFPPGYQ
Sequence of Human CD16a(F) (P08637 17-208 limits assumed): as the sequence (P08637 17-208 F176V limits assumed) above, with V160F counted along it
T2 sequence (P12314 16-288 limits assumed): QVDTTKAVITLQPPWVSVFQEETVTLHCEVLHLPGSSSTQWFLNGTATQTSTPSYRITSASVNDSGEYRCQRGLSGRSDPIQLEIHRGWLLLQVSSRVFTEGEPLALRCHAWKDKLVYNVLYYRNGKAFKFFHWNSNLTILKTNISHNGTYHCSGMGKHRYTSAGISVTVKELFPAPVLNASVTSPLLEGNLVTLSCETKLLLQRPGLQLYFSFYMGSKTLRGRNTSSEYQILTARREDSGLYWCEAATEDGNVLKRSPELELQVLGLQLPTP
Experimental for Human CD16a(F): (§3) The binding kinetics between proteins and antibodies was analyzed by the Biolayer Interferometry (BLI) technique using an Octet Red 96e (Fortebio) system. The rotation speed was set at 1000 rpm for the system. […] After equilibrated in the buffer for 120 s, the FAB2G sensor was allowed to bind to 2-fold serially diluted human Fc receptor protein. Finally, the FAB2G sensor was immersed in a 10 mM glycine-hydrochloric acid solution at pH 1.5 for regeneration to elute the proteins bound to the sensor. The affinity assays of antibodies for FcRn were performed under the conditions of both pH 6.0 buffer and pH 7.4 buffer. […] For the interactions of fast binding and fast dissociation, the “steady state” method was selected to fit the data to obtain KD(M) values.
Experimental for Human CD16a(V): as §3
Experimental for Human CD32a(H): as §3
Experimental for Human CD32b: as §3
Experimental for Human CD64: as §3
Experimental for human CLDN3: (§4) Antibodies were assayed for binding affinity to human CLDN18.2 paralogous proteins by FACS (ACEA NovoCyte). CLDN1, CLDN2, CLDN3, CLDN4, CLDN6 and CLDN9 genes of the human CLDN18.2 paralogous family were transiently transfected into HEK293 cells. […] The cell density was adjusted to 10⁶ cells/mL, and 50 μL of the cell suspension was added to each well of a 96-well plate. An antibody was diluted to 60 nM with FACS buffer, and 50 μL of the antibody dilution was added to each well of the 96-well plate. After 2 h of incubation at 4° C., the plate was washed twice with FACS buffer. Then, an FACS buffer containing a secondary antibody was added. After 1 h of incubation at 4° C., the plate was washed twice with FACS buffer. The cells were resuspended in fixative solution, and run FACS.
Experimental for human CLDN4: as §4
Experimental for human CLDN6: as §4
Experimental for human CLDN9: as §4

B1: PR006292 (bispecific antibody, human IgG1, lambda)
chain: EVQLVESGGGLVQPGGSLRLSCAASGFTFSSYWMHWVRQVPGKGLVWVSRISSDASRTIYADSVKGRFTISRDNAKNTLYLQMNSLRAEDTAVYYCARGEDHDILTGYPIRGQGTTVTVSSGGGGSGGGGSGGGGSEVQLVESGGGLVQPGGSLRLSCAASGFTFSSYWMHWVRQVPGKGLVWVSRISSDASRTIYADSVKGRFTISRDNAKNTLYLQMNSLRAEDTAVYYCARGEDHDILTGYPIRGQGTTVTVSSASEPKSSDKTHTCPPCPAPEAAGAPSVFLFPPKPKDTLMISRTPEVTCVVVDVSHEDPEVKFNWYVDGVEVHNAKTKPREEQYNSTYRVVSVLTVLHQDWLNGKEYKCKVSNKALPAPIEKTISKAKGQPREPQVCTLPPSREEMTKNQVSLSCAVKGFYPSDIAVEWESNGQPENNYKTTPPVLDSDGSFFLVSKLTVDKSRWQQGNVFSCSVMHEALHNHYTQKSLSLSPGK
heavy: EVQLVESGGGLVQPGGSLKLSCAASGFTFSTYAMNWVRQASGKGLEWVGRIRSKYNNYATYYADSVKDRFTISRDDSKNTAYLQMNSLKTEDTAVYYCTRHGNFGNSYVSWFAYWGQGTLVTVSSASTKGPSVFPLAPSSKSTSGGTAALGCLVKDYFPEPVTVSWNSGALTSGVHTFPAVLQSSGLYSLSSVVTVPSSSLGTQTYICNVNHKPSNTKVDKKVEPKSCDKTHTCPPCPAPEAAGAPSVFLFPPKPKDTLMISRTPEVTCVVVDVSHEDPEVKFNWYVDGVEVHNAKTKPREEQYNSTYRVVSVLTVLHQDWLNGKEYKCKVSNKALPAPIEKTISKAKGQPREPQVYTLPPCREEMTKNQVSLWCLVKGFYPSDIAVEWESNGQPENNYKTTPPVLDSDGSFFLYSKLTVDKSRWQQGNVFSCSVMHEALHNHYTQKSLSLSPGK
light: QAVVTQEPSLTVSPGGTVTLTCRSSTGAVTTSNYANWVQQKPGQAPRGLIGGTNKRAPWTPARFSGSLLGDKAALTLLGAQPEDEAEYFCALWYSNLWVFGGGTKLTVLGQPKAAPSVTLFPPSSEELQANKATLVCLISDFYPGAVTVAWKADSSPVKAGVETTTPSKQSNNKYAASSYLSLTPEQWKSHRSYSCQVTHEGSTVEKTVAPTECS
notes: structure 1; CD3 Fab from PR003886, CLDN18.2 VH from PR007245; IgG1 knob/hole, AAA (L234A, L235A, G237A)
Consider B1, for which the EC50 with human CLDN18.2 [1] was determined as 70.1 nM; in the assay with human CLDN18.2 [4] it was 11.5 nM. Further, the “TDCC, Titer EC50 (pM), NUGC4_D8” value with human CLDN18.2 [2] stood at 185 pM. Besides, in assay [3], the “TDCC, Titer EC50 (pM), SNU620” value was found to be 113 pM. Moreover, the binding result is “no binding (tested: 800-50 nM)” with Human CD64; “no binding (tested: 6000-375 nM)” with Human CD16a(V); “no binding (tested: 10000-625 nM)” with Human CD16a(F); “no binding (tested: 10000-625 nM)” with Human CD32a(H); “no binding (tested: 10000-625 nM)” with Human CD32b; “no binding” in the assay with human CLDN1. The binding result in the assay with human CLDN3, with human CLDN4, in the assay with human CLDN6 and with human CLDN9 was “no binding” each time. In the assay with Human FcRn, this molecule registered a Kd of 200 nM. The koff in the assay with Human FcRn amounted to 0.0609 s⁻¹. The molecule also gave a kon in the assay with Human FcRn of 305000 M⁻¹ s⁻¹. The IC50 came out at 87.7 nM with human CLDN18.2 [5] and 70.8 nM with human CLDN18.2 [6]. The “Maximum inhibition rate (%)” value amounted to 97.7% in the assay with human CLDN18.2 [5] and 48.1% in the assay with human CLDN18.2 [6].

B2: PR006384 (bispecific antibody, human IgG1, lambda)
chain: EVQLVESGGGLVQPGGSLRLSCAASGFTFSSYWMHWVRQVPGKGLVWVSRISSTGSRTIYADSVKGRFTISRDNAKNTLYLQMNSLRAEDTAVYYCARGEDHDILTGYPIRGQGTTVTVSSGGGGSGGGGSGGGGSEVQLVESGGGLVQPGGSLRLSCAASGFTFSSYWMHWVRQVPGKGLVWVSRISSTGSRTIYADSVKGRFTISRDNAKNTLYLQMNSLRAEDTAVYYCARGEDHDILTGYPIRGQGTTVTVSSASEPKSSDKTHTCPPCPAPEAAGAPSVFLFPPKPKDTLMISRTPEVTCVVVDVSHEDPEVKFNWYVDGVEVHNAKTKPREEQYNSTYRVVSVLTVLHQDWLNGKEYKCKVSNKALPAPIEKTISKAKGQPREPQVCTLPPSREEMTKNQVSLSCAVKGFYPSDIAVEWESNGQPENNYKTTPPVLDSDGSFFLVSKLTVDKSRWQQGNVFSCSVMHEALHNHYTQKSLSLSPGK
heavy: EVQLVESGGGLVQPGGSLKLSCAASGFTFSTYAMNWVRQASGKGLEWVGRIRSKYNNYATYYADSVKDRFTISRDDSKNTAYLQMNSLKTEDTAVYYCTRHGNFGNSYVSWFAYWGQGTLVTVSSASTKGPSVFPLAPSSKSTSGGTAALGCLVKDYFPEPVTVSWNSGALTSGVHTFPAVLQSSGLYSLSSVVTVPSSSLGTQTYICNVNHKPSNTKVDKKVEPKSCDKTHTCPPCPAPEAAGAPSVFLFPPKPKDTLMISRTPEVTCVVVDVSHEDPEVKFNWYVDGVEVHNAKTKPREEQYNSTYRVVSVLTVLHQDWLNGKEYKCKVSNKALPAPIEKTISKAKGQPREPQVYTLPPCREEMTKNQVSLWCLVKGFYPSDIAVEWESNGQPENNYKTTPPVLDSDGSFFLYSKLTVDKSRWQQGNVFSCSVMHEALHNHYTQKSLSLSPGK
light: QAVVTQEPSLTVSPGGTVTLTCRSSTGAVTTSNYANWVQQKPGQAPRGLIGGTNKRAPWTPARFSGSLLGDKAALTLLGAQPEDEAEYFCALWYSNLWVFGGGTKLTVLGQPKAAPSVTLFPPSSEELQANKATLVCLISDFYPGAVTVAWKADSSPVKAGVETTTPSKQSNNKYAASSYLSLTPEQWKSHRSYSCQVTHEGSTVEKTVAPTECS
notes: structure 1; CD3 Fab from PR003886, CLDN18.2 VH from PR007246; AAA
As for B2, the EC50 is 51.4 nM with human CLDN18.2 [1] and 14.4 nM with human CLDN18.2 [4]. For the same molecule, the “TDCC, Titer EC50 (pM), IM95” value in the assay with human CLDN18.2 [2] came out at 938 pM. Also, the “TDCC, Titer EC50 (pM), NUGC4_D8” value in the assay with human CLDN18.2 [2] was determined as 57.9 pM. For the same molecule, in assay [3], the “TDCC, Titer EC50 (pM), SNU620” value was 57.1 pM. Also, the binding result in the assay with Human CD64 is “no binding (tested: 800-50 nM)”; with Human CD16a(V), “no binding (tested: 6000-375 nM)”; with Human CD16a(F) it was “no binding (tested: 10000-625 nM)”; in the assay with Human CD32a(H) it was “no binding (tested: 10000-625 nM)”; with Human CD32b it was “no binding (tested: 10000-625 nM)”; with human CLDN1 it was “no binding”. Moreover, the binding result in the assay with human CLDN3, in the assay with human CLDN4, with human CLDN6 and with human CLDN9 was “no binding” in each case. For the same molecule, the affinity in the assay with Human FcRn, expressed as Kd, was 210 nM. The koff with Human FcRn was 0.0608 s⁻¹. For the same molecule, the kon with Human FcRn was 289000 M⁻¹ s⁻¹. Moreover, the IC50 in the assay with human CLDN18.2 [5] turned out to be 103 nM; in the assay with human CLDN18.2 [6], 56.7 nM. Moreover, the figures for the “Maximum inhibition rate (%)” value in the assay with human CLDN18.2 [5] and with human CLDN18.2 [6] were 97.8% and 48.5%, respectively.
